# Reference: the nanobody polyreactivity screen of Harvey et al. (2022)
# Assay: yeast display, Sf9 membrane polyspecificity reagent, FACS + sequencing; frameworks hold sequencing errors
# Outline: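 Sorting gates, low and high (top ~1%), were placed on anti-HA fluorescence to track expression and on streptavidin fluorescence to track reagent binding. A clone's polyreactivity label is taken from the gate it came out of. The reagent was 10% biotinylated, detergent-solubilized Sf9 membrane, applied for 1 hour at 4 °C to galactose-induced yeast display cells.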
row,Sequence,polyreactivity (PSR sort gate)
1,QVQLVESGGGLVQAGGSLRLSCAASGLIFAYYAMGWYRQAPGKERELVAAISWTGGSTYYADSVKGRFTISRDNAKNTVYLQMTSLKPEDTAVYYCNTVGKPGFYSWGQGTQVTVSS,high polyreactivity
2,QVQLVESGGGLVQAGGSLRLSCAASGLIFDDYAMGWYRQAPGKERELVAAISLSGGSTFYADSVKGRFTISRDNAKNTVYLQMNSLKAEDTAVYYCAAQARRAYVQTRMYYWGQGTQVTVSS,high polyreactivity
3,QVQLVESGGGLVQAGGSLRLSCAASGLIFDHNAMGWYRQAPGKERELVAAISYSGARTYYADSVKGRFTISRDNAKNTVYLQMYSLKPEDTAVYYCNAVINSHRRHVTYDYWGQGSQVTVSS,high polyreactivity
4,QVQLVESGGGLVQAGGSLRLSCAASGLIFDIYAMGWYRQAPGKERELVATISKRGGTTSYADSVKGRFTISRDNAKNTVYLQMNSLKPEDTAVYYCAATTLIAYDYWGQGTQVTVSS,high polyreactivity
5,QVQLVESGGGLVQAGGSLRLSCAASGLIFDPYAMGWYRQAPGKERELVAAITWSGDSTSYADSVKGRFTISRDNAKNTVYLQMNSLKPEDTAVYYCAADGWSRSWGYWVHYGYWGQGTQVTVSS,low polyreactivity
6,QVQLVESGGGLVQAGGSLRLSCAASGLIFDSYAMGWDRQAPRKERELVAAITYTGGSTYYADSVKGRFTISRDNAKNSVYLQMNSLKPEDTAVYYCAARRQRERYGYWGQGTQVTVSS,high polyreactivity
7,QVQLVESGGGLVQAGGSLRLSCAASGLIFDVYDMGWYRQAPGKERELVAAISTTGGSTFYADSVKGRFTISRDNAKNTVYLQMYSLKPEDTAVYYCNADWAPTGFSGGYPYDYWGQGTQVTVSS,high polyreactivity
8,QVQLVESGGGLVQAGGSLRLSCAASGLIFFNYYAMGWYRQAPGKERELVAAIRYGGGSTYYADSVKGRFTISRDNAKNTVYLLMNSLKPEDTAVDYCAARFKGYYRYGYWGQGTQVTVSS,high polyreactivity
9,QVQLVESGGGLVQAGGSLRLSCAASGLIFGFYAMGWYRQAPGKEWELVAAINSGGITYYADSVKGRFTISRDNAKNTVYLQMNSLKPEDTSVYYCAAVHSRRARYDYWGQGTQVTVSS,low polyreactivity
10,QVQLVESGGGLVQAGGSLRLSCAASGLIFGGNAMGWYRQAPGKERELVAAISRSTGRTYYADSVKGRFTISRDNEKNTVYLQMNSLKPEDTAVYYCNAVGYAFPSYDSWGQGTQVTVSS,high polyreactivity
11,QVQLVESGGGLVQAGGSLRLSCAASGLIFGGNAMGWYRQAPGKERELVAAISRSTGRTYYADSVKGRFTISRDTAKNTVYLQMNSLKPEDTAVYYCNAVGYAFPSYDSWGQGTQVTVSS,high polyreactivity
12,QVQLVESGGGLVQAGGSLRLSCAASGLIFGLYSMGWYRQAPGKERELVAAISYRTDSTYADSVKGRFTISRDNAKNTVYLQMNSLKPEDTAVYYCAADLRVSVRYYYWGQGTQVTVSW,low polyreactivity
13,QVQLVESGGGLVQAGGSLRLSCAASGLIFGPYAMGWYRQAPGKERELVAAISARGGSTRYADSVKGRFTISRDNAKNTVYLQMNSLKPEDTAVYYCAASTWYGYDYWGQGTQVTVSS,high polyreactivity
14,QVQLVESGGGLVQAGGSLRLSCAASGLIFGRNAMGWYRQAPGKERELVAAINNSGGTTYYADSVKGRFTISRDNAKNTVYLQMNSLKPEDTAVYYCNAYFRNWRYSPGGYWGQGTQVTVSS,high polyreactivity
15,QVQLVESGGGLVQAGGSLRLSCAASGLIFGSNAMGWYRQAPGKERELVAAISSGGTTKYADSVKGRFTISRDNAKNTVYLQMNSLKPEDTAVYYCAAQDYSYTTRFQDDYWGQGTQVTVSS,low polyreactivity
16,QVQLVESGGGLVQAGGSLRLSCAASGLIFGTYAMGWYREARGIERELVAAITSGGRTYYADSVKGRFTISRDNAKNTVYLQLNSLKPEATAVYYCAAVLSQWGAVFLYVLSTGLDYWGQGTQVTVSS,low polyreactivity
17,QVQLVESGGGLVQAGGSLRLSCAASGLIFGWYAMGWYRPEPGKEREFVASIRYGGGSTYYADSVKGRFTISRDNAKNTVYLQMNSLKPEDTAVYYCAADRYPWHLQYVEYDSDYWGQGTQVTVSS,low polyreactivity
18,QVQLVESGGGLVQAGGSLRLSCAASGLIFGYYAMGWYRQAPGKEREFVAAISGTGGSTYYADSVKGRFTISRDNAKNTVYLQMNSLKPEDTAVYYCAARQGWWRFYAYDYWGQCTQVTVSS,high polyreactivity
19,QVQLVESGGGLVQAGGSLRLSCAASGLIFGYYAMGWYRQAPGKERELVAAITSSGASTYYADSVKGRFTISRDNAKNSVYLQMNSLKPEDTAVYYCNKYRYRSLGYDYWGQGTQVTVSS,high polyreactivity
20,QVQLVESGGGLVQAGGSLRLSCAASGLIFGYYAMGWYRQAPGKERELVAVISYSGGSTYYADSVKGRFTITRDNAKNTVYLQMNSLNPEDTAVYYCNTYGAYYRHTKEYGYWGQGTQVTVSS,high polyreactivity
21,QVQLVESGGGLVQAGGSLRLSCAASGLIFHRNAMGWYRQAPGKERELVAAITKTGGGTYYADSVKGRFTISLDNAKNTVYLQMNSLKPEDTAVYYCAADTQRTFYYWGQGTQVTVSS,low polyreactivity
22,QVQLVESGGGLVQAGGSLRLSCAASGLIFKRYAMGWYRQAPGKERELVAAISSGTRTYYADSVKGRFTISRDNAKNTVYLQMNSLKPEDTAVYYCAARLDYWGQGTQVTVSS,high polyreactivity

row,Sequence,polyreactivity (PSR sort gate)
1,QVQLVESGGGLVQAGGSLRLSCAASGLIFKYYAMGWYRQAPGKERELVAAITGRGGSTYYADSVKGRFTISRDNAKNTVYLQMNSLKPEDTAVYYCARRRTYSFNPVTYDWGQGTQVTVSS,high polyreactivity
2,QVQLVESGGGLVQAGGSLRLSCAASGLIFLRNAMGWYRQAPGKERELVAAISRSGGSTYYADSVKGRFTISRDYAKNTVYLQMNSLKPDDTAVYYCAKYGYGGVIPGPDHYDYWGQGTQVTVSS,high polyreactivity
3,QVQLVESGGGLVQAGGSLRLSCAASGLIFNLYAMGWYRQAPGKEREFVATITGIGGSTYYADSVKGRFTISRDIAKNTVYLQMNSLKPDDTAVYYCAADAWFVPYNYWGQGTQVTVSS,low polyreactivity
4,QVQLVESGGGLVQAGGSLRLSCAASGLIFNLYAMGWYRQAPGKEREFVATITGIGGSTYYADSVKGRFTISRDNAKNTVYLQMNSLKPEDTAVYYCAADAWFLPYNDWGQGTQVTVSS,low polyreactivity
5,QVQLVESGGGLVQAGGSLRLSCAASGLIFNRYVMGWYRQARGKERELVAAITCSGDSTYYADSVKGRFTISRDNAKNTVYLQMNSLKPVDTAVYYCAAWDYRYTDREGDYWGPGTQVTVSS,high polyreactivity
6,QVQLVESGGGLVQAGGSLRLSCAASGLIFNTYAMGWYRQAPGKDRELVAAITDGGGTNYADSVKGRFTISRDNAKNTVYLQMNSLKPEDTAVYYCAARLASWPLTYDFQWYEYWGQGTQVTVSS,low polyreactivity
7,QVQLVESGGGLVQAGGSLRLSCAASGLIFNYYAMGWYRPAPGKERELVAAIYNGGSTYADSVKGRFTISRDNAKNTVYLQMNSLKPEDTAVYYCNTDDPDRDNDVKSIDYDYWGQGTQVTVSS,low polyreactivity
8,QVQLVESGGGLVQAGGSLRLSCAASGLIFNYYAMGWYRQAPGKEREFVAAISGRGGNTYYADSVKVRFTISRDNAKTTVYLQINSLKPEDTAVYYCAARRYYSNREYDYWGQGTQVTVSS,high polyreactivity
9,QVQLVESGGGLVQAGGSLRLSCAASGLIFPAYAMGWYRQAPGKERELVAAISYSGGRTYYADSVKGRVTISRDNAKNTVYLQMNSLKPEDTAVYYCNTGYWYVSLGSYDYYGEYDYWGQGTQVTVSS,high polyreactivity
10,QVQLVESGGGLVQAGGSLRLSCAASGLIFPGYAMGWYRQAPGKERELVAAISWSGGTTYYADSVKGRFTISRDNAKNTVYLQMNSLKPEDTAVYYCNAVYLQGYDYWGQGTQVTVSS,low polyreactivity
11,QVQLVESGGGLVQAGGSLRLSCAASGLIFPPNAMGWYRQAPGKERELVASITRSGVSTNYADSVKGRFTISRDNAKNTVYLQMNSLKPEDTAVYYCAAVIYSTYTIPNDEMGYWGHGTQVTVSS,low polyreactivity
12,QVQLVESGGGLVQAGGSLRLSCAASGLIFPRYAMGWYRQAPGKERELVAAITRGGSTYYADSVKGRFTISRDNAKNTVYLQMNSLKPEATAVYDCNAELPVHCSWYDYWGQGTQVTVSS,low polyreactivity
13,QVQLVESGGGLVQAGGSLRLSCAASGLIFPRYAMGWYRQAPGKERELVAAITRGGSTYYADSVKGRFTISRDNAKNTVYLQMNSLNPEDTAVYYCTAELPVHWSWYDYWGQGPQVTVSS,low polyreactivity
14,QVQLVESGGGLVQAGGSLRLSCAASGLIFPRYAMGWYRQAPGKVSELVAAITWSGGSTFYADSVKGRFTISRDTAKNTVYLQMNSLKPEDTAVYYCAAQDASERTYGYDGYYYWGQGTQVTVSS,low polyreactivity
15,QVQLVESGGGLVQAGGSLRLSCAASGLIFPRYGMGWYRQAPGKERELVAAISRSGGNTYYADSVKGRFTISRDNAKNTVYLQMNSLKPEDTAVYYCAAYFSTAPKSQYKLDYRGQGTQVTVSS,high polyreactivity
16,QVQLVESGGGLVQAGGSLRLSCAASGLIFPRYTMGWYRQAPGKERELVAAIRGTGGSTYYADSVKGRFTISRDNPKNTVYLQLNSLKPEDTAVYYCATRGKSHGQQFNYWGQGTQVTVSS,high polyreactivity
17,QVQLVESGGGLVQAGGSLRLSCAASGLIFPVYAMGWYRQAPGKEREFVASIWRGGTTYYADSVKGRFTISRDNAKNTVYLQMNSLKPEDTAVYYCAARYYPRGLVFPFTKYDYWGQGTQVTVSS,high polyreactivity
18,QVQLVESGGGLVQAGGSLRLSCAASGLIFPYYTMGWYRQAPGKERELVAAISWRGGGTFYADSVKGRFTISRDNAKNTVYLQMNSLNPEDTAVYYCAAQLYPYRWYYWGQGTQVTVSS,high polyreactivity
19,QVQLVESGGGLVQAGGSLRLSCAASGLIFQSYAMGWYRQAPGKERELVAVITWSGTSTYADSVKGRFTISRVNAKNTVYLQMNSLKPEDTAVYYCAASKYGSFTNFGYWGQGTQVTVSS,low polyreactivity
20,QVQLVESGGGLVQAGGSLRLSCAASGLIFQYYAMGWSRQAPGKERELVASISWSGSSTYYADSVKGRFTISRDNAKNTVYLQMISLKPEDTAVYYCAAGWGRGWYDYWGQGTQVTVSS,high polyreactivity
21,QVQLVESGGGLVQAGGSLRLSCAASGLIFRAYAMGWYRQAPGKERELVAAISRRGGSTYYADSVKGRFTISRDNANNTVYLQMNSLKPEDSAVYYCNKDSRSWPFKYDYWGQGTQVTVSS,high polyreactivity
